In PMC4333382, “RNA helicase A activity is inhibited by oncogenic transcription factor EWS-FLI1” (Nucleic Acids Research, 2015):
Values belong to the compound of their own block, whether it stands above or below them.

Columns and labels:
EWS-FLI1 = biological target: T1, EWS-FLI1 (UniProt F1JVV7); assay: EMSA
T1 sequence: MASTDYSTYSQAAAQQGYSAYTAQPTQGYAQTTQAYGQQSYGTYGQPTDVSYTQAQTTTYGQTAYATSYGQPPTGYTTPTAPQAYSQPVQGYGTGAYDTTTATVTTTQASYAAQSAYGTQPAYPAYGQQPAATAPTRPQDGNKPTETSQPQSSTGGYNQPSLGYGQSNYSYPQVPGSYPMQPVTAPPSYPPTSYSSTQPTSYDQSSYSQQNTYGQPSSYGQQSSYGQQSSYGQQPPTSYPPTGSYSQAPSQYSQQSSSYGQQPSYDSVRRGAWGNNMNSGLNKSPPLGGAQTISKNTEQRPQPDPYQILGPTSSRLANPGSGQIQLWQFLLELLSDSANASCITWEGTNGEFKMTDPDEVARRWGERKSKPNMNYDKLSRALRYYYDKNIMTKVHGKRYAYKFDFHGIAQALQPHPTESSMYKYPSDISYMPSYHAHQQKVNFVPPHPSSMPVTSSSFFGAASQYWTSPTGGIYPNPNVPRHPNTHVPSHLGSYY

RHA (RNA helicase A) = assay: EMSA
[1] = biological target: T2, RNA helicase A (RHA, DHX9) (Homo sapiens, UniProt Q08211); assay: dsRNA strand-separation gel assay; format: biochemical; details: 2 mM nucleotide, 2 mM MgCl2, pH 7.5, dsRNA
T2 construct: full-length, N-terminal His-tag, baculovirus / Sf9 cells, nickel IMAC and heparin purified

RNA helicase A (human) [2] = biological target: RNA helicase A (human) (UniProt Q08211)
RNA helicase A (human) [3] = biological target: RNA helicase A (human) (UniProt Q08211); assay: SPR; RHA amine-coupled to a CM5 chip (~1800 RU); EWS-FLI1 as analyte at 24 to 0.375 nM; HBS-P with 1-mM TCEP, 2-mM MgCl2, 0.1-M imidazole, pH 7.4; flow 100 ul/min, contact 60 s, dissociation 600 s; sample compartment at 10°C; 1:1 Langmuir model; Biacore T-200
RNA helicase A (human) [4] = biological target: RNA helicase A (human) (UniProt Q08211); remark: listed apart in the source

Chain of RNA helicase A (human) (Q08211 whole entry): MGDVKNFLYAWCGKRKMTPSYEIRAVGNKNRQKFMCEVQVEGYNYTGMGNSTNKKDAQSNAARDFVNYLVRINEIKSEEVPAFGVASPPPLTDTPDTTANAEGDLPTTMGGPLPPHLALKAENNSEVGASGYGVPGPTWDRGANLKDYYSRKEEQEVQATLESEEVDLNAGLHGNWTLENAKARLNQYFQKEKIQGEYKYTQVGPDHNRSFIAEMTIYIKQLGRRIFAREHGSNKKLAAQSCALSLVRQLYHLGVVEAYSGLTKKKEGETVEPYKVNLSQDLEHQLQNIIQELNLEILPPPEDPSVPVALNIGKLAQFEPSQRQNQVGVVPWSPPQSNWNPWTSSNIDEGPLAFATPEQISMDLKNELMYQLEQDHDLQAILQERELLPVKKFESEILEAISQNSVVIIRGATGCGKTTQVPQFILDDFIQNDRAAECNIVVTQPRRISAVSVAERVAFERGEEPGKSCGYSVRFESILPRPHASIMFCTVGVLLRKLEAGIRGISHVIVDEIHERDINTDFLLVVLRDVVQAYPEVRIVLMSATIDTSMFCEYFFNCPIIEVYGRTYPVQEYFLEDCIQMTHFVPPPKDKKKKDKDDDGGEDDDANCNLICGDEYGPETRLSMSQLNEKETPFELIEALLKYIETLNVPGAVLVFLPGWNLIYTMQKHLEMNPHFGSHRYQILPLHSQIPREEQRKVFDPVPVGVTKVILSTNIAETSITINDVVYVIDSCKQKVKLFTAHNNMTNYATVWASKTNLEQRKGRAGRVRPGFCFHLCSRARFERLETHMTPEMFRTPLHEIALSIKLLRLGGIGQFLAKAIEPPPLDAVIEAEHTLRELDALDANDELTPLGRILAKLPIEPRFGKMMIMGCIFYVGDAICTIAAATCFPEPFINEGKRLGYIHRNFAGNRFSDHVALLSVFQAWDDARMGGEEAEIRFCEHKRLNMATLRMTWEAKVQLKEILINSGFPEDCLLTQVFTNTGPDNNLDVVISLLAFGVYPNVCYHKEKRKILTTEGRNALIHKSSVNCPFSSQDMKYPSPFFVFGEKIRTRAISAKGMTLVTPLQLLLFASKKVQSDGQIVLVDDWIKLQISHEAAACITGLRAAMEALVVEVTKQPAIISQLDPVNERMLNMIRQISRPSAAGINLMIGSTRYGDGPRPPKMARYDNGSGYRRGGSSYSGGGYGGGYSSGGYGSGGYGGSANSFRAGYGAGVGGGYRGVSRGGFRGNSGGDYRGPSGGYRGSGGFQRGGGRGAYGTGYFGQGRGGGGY
T2 sequence (Q08211 whole entry): as above

Compound: 350-nt partially double-stranded HDV RNA
- Kd (EWS-FLI1): 30 nM
- binding signal (fold decrease in affinity) (EWS-FLI1): 3
- Kd (RHA (RNA helicase A)): 4.7 nM

Compound: Nc1ccn([C@@H]2O[C@H](COP(=O)(O)OP(=O)(O)OP(=O)(O)O)[C@@H](O)[C@H]2O)c(=O)n1 [CTP]
- dsRNA strand-separation gel assay [1]: Our purified RHA utilizes ATP, CTP, Uridine triphosphate (UTP) and Guanosine triphosphate (GTP)

Compound: Nc1ncnc2c1ncn2[C@@H]1O[C@H](COP(=O)(O)OP(=O)(O)OP(=O)(O)O)[C@@H](O)[C@H]1O [ATP]
- dsRNA strand-separation gel assay [1]: Our purified RHA utilizes ATP, CTP, Uridine triphosphate (UTP) and Guanosine triphosphate (GTP)

- reduction of the initial velocity of RHA helicase activity (dsRNA strand separation), 1-nM RHA with 0.5 to 10 nM EWS-FLI1 (58% reduction at 1 nM) (RNA helicase A (human) [2]): 78%
- Kd (RNA helicase A (human) [3]): 14 nM
- koff (RNA helicase A (human) [3]): 0.03 s⁻¹
- kon (RNA helicase A (human) [3]): 3.5e+06 M⁻¹ s⁻¹
- helicase activity of 1-nM RHA in the presence of 1-nM EWS-FLI1 with racemic YK-4-279 or (S)-YK-4-279 (30 uM) (RNA helicase A (human) [4]): 80%
Compound: EWS-FLI1
